Data on 6 proteins can be found in patent publication US12371675B2, “Process and microorganism for synthesis of adipic acid from carboxylic acids” (THE GOVERNING COUNCIL OF THE UNIVERSITY OF TORONTO, priority 2015, dated 2025).

Substrate in series [1]: O=C(O)C=CCCC(=O)O
Kind of series: Kinetics of purified EREDBC, NADH oxidation at 340 nm, anaerobic. Type of series: biochemical, Bacillus coagulans 36D1. As to conditions: other: 2-hexenedioic acid in 0.25 mM isopropanol, 2.5 to 35 mM, sigmoidal kinetics, pH 7.0, 30.0 °C. The procedure: (§1) The C═C reducing activity of EREDs was examined. Enzyme activity of purified EREDs was measured spectrophotometrically in 96-well plates by following incubation for 3-5 min at 30° C. in the anaerobic chamber as described in M. Buhler, H. Simon, Hoppe-Seyler's Zeitschrift fur Physiologische Chemie 1982, 363, 609-625. Buffers and reagents were degassed and sparged with Ar. Reaction mixture contained potassium phosphate (100 mM and pH 7.0), NADH (0.5 mM), indicated substrates, and proteins (0.1-50 μg) in a final volume of 200 μL. Enzyme reactions were monitored by following the decrease in absorbance at 340 nm (ε340 nm=6,220/M·cm) due to oxidation of NADH to NAD+.
(§2) For in vitro biochemical characterization, enzyme activities of purified EREDs were measured with 2-hexenedioic acid, cis-cis-muconic acid, trans-trans muconic acid, trans-cinnamic acid, trans-2-methyl-2-butenoic acid, trans-2-butenoic acid, acrolein, 2-cyclohexen-1-one, and 3-methyl-2-cyclohexenone. […] [Feng, J. et al. Discovery and Characterization of BlsE, a Radical S-Adenosyl-L-methionine Decarboxylase Involved in the Blasticidin S Biosynthetic Pathway. PLoS ONE 8 (2013)].
(§3) Kinetic studies of purified EREDBC were performed using 2-hexenedioic acid, 2-cyclohexen-1-one, 3-methyl-2-cyclohexenone, and trans-cinnamic acid as substrates (FIG. 10).
(§4) To increase the dissolved substrate concentration, 2-hexenedioic acid was dissolved in a reaction mixture containing […] (final concentration) isopropanol, and kinetic constants of EREDBC and EREDCA were determined.

Substrate in series [2]: O=C(O)/C=C/c1ccccc1
The series is described as above. It counts as biochemical, Bacillus coagulans 36D1. The note with it: other: trans-cinnamic acid, pH 7.0, 30° C., anaerobic. The procedure:
as §1, §2, §3, §4

Substrate in series [3]: O=CCCCCC=O
Kind of series: AT kinetics, coupled with alanine and glutamate dehydrogenases. Type of series: biochemical, Escherichia coli. The note with it: other: amino-donor Ala/Glu; pH 7.5. How it is done:
(§5) 28 PLP-dependent aminotransferases (from the classes I, II and III) were cloned and overexpressed in E. coli (Table 6). Enzymes were purified using affinity chromatography on a Ni-NTA resin and were screened for […] activity towards adipaldehyde using alanine and glutamate as amino-donors. Enzyme activity was measured spectrophotometrically using a coupled reaction with the NADPH/NADH-dependent alanine and glutamate dehydrogenases in the presence of excess of ammonium chloride.
(§6) Reaction was monitored by following the decrease in absorbance of NAD(P)H to NAD(P)+ at 340 nm (ε340 nm=6,220/M·cm). Coupled enzymes can aminate pyruvate/ketoglutarate produced by ATs in excess of NH4Cl.

Substrate in series [4]: CCCC=O
Kind of series: AR kinetics, aldehyde reduction followed by NAD(P)H oxidation. Type of series: biochemical, Pseudomonas putida. As to conditions: other: butyraldehyde, pH 7.5. From the text: (§7) 28 aldehyde reductases from different bacteria were cloned and overexpressed in E. coli. Enzymes purified using affinity chromatography on Ni-NTA resin were screened for reductase activity with adipaldehyde and butyraldehyde in presence of both NADPH and NADH (Table 5). Butyraldehyde was used as a substrate substitute for 4-oxo-butanal, which is not commercially available. Reactions were followed spectrophotometrically, by cofactor oxidation at 340 nm.
(§8) Enzyme activity of purified ARs was measured spectrophotometrically in 96-well plates Reaction mixtures contained 100 mM HEPES buffer (pH 7.5), 0.4 mM NADH/NADPH, 10 mM adipaldehyde or butylaldehyde, and proteins (10 μg for adipaldehyde screen, 2 μg for butyraldehyde screen) in a final volume of 200 μL Reaction mixture for adipaldehyde screening contained 1.8% DMSO. Enzyme reactions were monitored by following the decrease in absorbance at 340 nm (ε340 nm=6,220/M·cm) due to oxidation of NAD(P)H to NAD(P)+.
(§9) ARs RHA1_ro05279, PA1146, SC00229, PP_3370 were characterised for saturation with adipaldehyde, PP_3370, PSPTO_2097, RHA1_ro05279, SC00229, TM_0111, PA1146 were characterised for butyraldehyde saturation (Table 10). […] For both substrates maximal kcat/Km with minimal Km values was shown by AR PP 3370 from Pseudomonas putida.

Substrate in series [5]: O=CCCCCC=O
The description is as above. Type of series: biochemical, Pseudomonas putida. As to conditions: other: adipaldehyde, 1,8% DMSO, pH 7.5.
Description: as §7, §8, §9

Substrate in series [6]: O=CCCCCC=O
Kind of series: AT kinetics, coupled with alanine and glutamate dehydrogenases. Type of series: biochemical, Streptomyces avermitilis. The note with it: other: amino-donor Ala/Glu; pH 7.5. The procedure:
as §5, §6

Substrate in series [7]: CCCC=O
Briefly: AR kinetics, aldehyde reduction followed by NAD(P)H oxidation. It counts as biochemical, Thermotoga maritima. The note with it: other: butyraldehyde, pH 7.5.
Description: as §7, §8, §9

Substrate in series [8]: CCCC=O
Described as above. It counts as biochemical, Streptomyces coelicolor. As to conditions: other: butyraldehyde, pH 7.5.
Description: as §7, §8, §9

Substrate in series [9]: O=CCCCCC=O
The description is as above. The note with it: other: adipaldehyde; cofactor NADPH; 1,8% DMSO; pH 7.5. Type of series: biochemical, Streptomyces coelicolor.
Description: as §7, §8, §9

As usually defined, the Km is the concentration of substrate that gives half-maximal velocity. A word on the kcat: it is the number of substrate molecules converted per active site and unit of time at saturation.

B1: Bacillus coagulans 36D1 2-enoate reductase EREDBC, SEQ ID NO: 1 (Heyndrickxia coagulans) (protein)
chain: MKYKKLFETVKIRNVELKNRYAMAPMGPLGLADAEGGFNQRGIEYYTARARGGTALIITGVTFVDNEVEEHGMPNVPCPTHNPVHFVRTSKEMTERIHAYDSKIFLQMSAGFGRVTIPTNLGEYPPVAPSPIPHRWLDKTCRELTVEEIHSIVRKFGDGAFNAKRAGFDGVQIHAVHEGYLLDQFAIAFFNKRTDAYGGPLENRLRFAREIVEEIKQRCGEDFPVTLRFSPKSFIKDWREGALPGEEFEEKGRDLDEGIEAAKLLVSYGYDALDVDVGSYDSWWWSHPPMYQKKGLYIPYARLVKEAVDVPVLCAGRMDNPDLALAALEDGACDIISLGRPLLADPDYVNKLRIGQVADIRPCLSCHEGCMGRIQEYSSLGCAVNPAACREKEAALTPALKKKRVLIAGGGVAGCEAARVLALRGHEPVIFEKSNRLGGNLIPGGAPDFKEDDLALVAWYEHTLERLGVEIHLNTALTKEEILAANVDAVLIATGSNPKILPLDGKNKVFTAEDVLLDKVDAGQHVVIVGGGLVGCELALNLAEKGKDVSLVEMQDKLLAVNGPLCHANSDMLERLVPFKGVQVYTSSKIVDTTEKTAVVDVDGELREIEADSIVLAVGYSAEKSLYEDLKFEVADLHVVGDARKVANIMYAIWDAYEVAANL
Consider B1, for which the Km in series [1] was 18900 µM. Also, in series [2], the Km was found to be 510 µM and the kcat came out at 0.50 s⁻¹.

B2: Escherichia coli aminotransferase gabT, SEQ ID NO: 53 (Escherichia coli K-12) (protein)
chain: MNSNKELMQRRSQAIPRGVGQIHPIFADRAENCRVWDVEGREYLDFAGGIAVLNTGHLHPKVVAAVEAQLKKLSHTCFQVLAYEPYLELCEIMNQKVPGDFAKKTLLVTTGSEAVENAVKIARAATKRSGTIAFSGAYHGRTHYTLALTGKVNPYSAGMGLMPGHVYRALYPCPLHGISEDDAIASIHRIFKNDAAPEDIAAIVIEPVQGEGGFYASSPAFMQRLRALCDEHGIMLIADEVQSGAGRTGTLFAMEQMGVAPDLTTFAKSIAGGFPLAGVTGRAEVMDAVAPGGLGGTYAGNPIACVAALEVLKVFEQENLLQKANDLGQKLKDGLLAIAEKHPEIGDVRGLGAMIAIELFEDGDHNKPDAKLTAEIVARARDKGLILLSCGPYYNVLRILVPLTIEDAQIRQGLEIISQCFDEAKQ
notes: 6His-tag (N); made in house; host or cells: E. coli BL21 (DE3)
Turning to B2, in series [3], the Km worked out at 670 ± 70 µM, the kcat was 0.61 ± 0.02 s⁻¹ and the kcat/Km is given as 9.22±0.27 ×10^2 M^−1 · s^−1.

B3: Pseudomonas putida aldehyde reductase PP_3370, SEQ ID NO: 45 (Pseudomonas putida KT2440) (protein)
chain: MQYVKLGSTGLDISRLCLGCMTFGEPDAGTHPWTLGEDASRPIIRHAVEQGINFFDTANSYSAGTSEIILGKLLREFTRREETVIATKVFFPANMWEGASRPNEQGLSRKAIMANIDASLSRLGTDYVDLYQIHRWDYHTPIEETMEALHDVVKAGKARYIGASSMYAWQFAKAQQVAANHGWSRFVSMQNYLNLIYREEEREMIPLCLDQGVGLMPWSPMARGRLTRPHGQQTQRTRTDVSGQSFYEKTEVEDGRVIDVVEQIASERGVPMAQVALAWVLGRAGVSAPIVGASKPAHLDDALGALSLQLSEDEVARLQAPYVPHAVTGFK
With B3, the Km in series [4] (cofactor NADH) is 16100 ± 1890 µM; in series [4] (cofactor NADPH), 1530 ± 110 µM; in series [5] (cofactor NADH), 4780 ± 490 µM; in [5] (cofactor NADPH), 290 ± 20 µM. For the same protein, the kcat stood at 10.7 ± 0.73 s⁻¹ in series [4] (cofactor NADH), 8.54 ± 0.22 s⁻¹ in series [4] (cofactor NADPH), 1.74 ± 0.08 s⁻¹ in series [5] (cofactor NADH) and 6.03 ± 0.25 s⁻¹ in [5] (cofactor NADPH). Besides, the kcat/Km result is “(6.64 ± 0.45) × ×10^2 M^−1 · s^−1” in series [4] (cofactor NADH), 5.58±0.14 ×10^3 M^−1 · s^−1 in series [4] (cofactor NADPH), “(3.64 ± 0.16) × ×10^2 M^−1 · s^−1” in [5] (cofactor NADH) and 2.08±0.09 ×10^4 M^−1 · s^−1 in series [5] (cofactor NADPH).

B4: Streptomyces avermitilis aminotransferase SAV2583, SEQ ID NO: 55 (Streptomyces avermitilis MA-4680 = NBRC 14893) (protein)
chain: MSALPQERRVVTAIPGPKSQELQARRTAVVAAGVGSVLPVFTTRAGGGIIEDVDGNRLIDFGSGIAVTSVGASAEAVVRRASAQLQDFTHTCFMVTPYEGYVAVAEALAELTPGDHAKKSALFNSGAEAVENAVKIARAYTKRQAVVVFDHGYHGRTNLTMALTAKNMPYKNGFGPFAPEVYRVPVAYGYRWLTGPENAGAEASAQAIDMINKQIGADNVAAIIIEPVLGEGGFIEPAKGFLPAISKFAKDNGIVFVADEIQSGFCRTGQWFACEDEGIVPDLITTAKGIAGGLPLAAVTGRAEIMDAAHAGGLGGTYGGNPVACAGALGAIETMKELDLNAKAKNIEAVMKARLGAMAEKFDIIGDVRGRGGMIAIELVKDRDTKEPNPEAAGALAKACHQEGLLVLTCGTYGNVLRFLPPLVIGEDLLNEGLDIIEQAFSRI
In the case of B4, in [6], the Km was found to be 1350 ± 190 µM, the kcat turned out to be 0.39 ± 0.02 s⁻¹ and the kcat/Km entry is on record as “(2.90 ± 0.13) × ×10^2 M^−1 · s^−1”.

B5: Thermotoga maritima aldehyde reductase TM_0111, SEQ ID NO: 52 (Thermotoga maritima MSB8) (protein)
chain: MFKISFYLPTEIIFRVGAVDELEERAKKLGKKALIVTGRSSTKKTGLLQRVVDLLKKAGVESFVFDKIVPNPISDHVDEAAEIVRKEKIDFIIGLGGGSPIDSAKAISITAPNEGKFWDYVPVGGGKIPEKSIPVVAIPTTHGTGTEADPFAVITNPQTKEKVGIGYRNTFPVLSLVDPEVMKTLPKDQTAYTSMDAFYHAIEAFLNVNANPYSDVLALDAMKRIVTYLPVAYENGEDMEARTNLAWASTEAGITETLTGVIANHALEHGLSGFYPEITHGLGLCITGPYLFEYIFDHAYERLAIVGREVFGVYETDDRKAGRLAIKKLRDFQEMFGLNKRLSELGVKKEDIPKMAETGYRILNGVVVVTPGNLTAKDMEEIFNRCY
Take B5: in series [7] (cofactor NADH), the Km worked out at 1370 ± 310 µM, the kcat was 0.90 ± 0.05 s⁻¹ and the kcat/Km result is “(6.57 ± 0.36) × ×10^2 M^−1 · s^−1”. In addition, in [7] (cofactor NADPH), the Km worked out at 2720 ± 1390 µM, the kcat worked out at 0.30 ± 0.06 s⁻¹ and the kcat/Km result is on record as “(1.10 ± 0.22) × ×10^2 M^−1 · s^−1”.

B6: Streptomyces coelicolor aldehyde reductase SCO0229, SEQ ID NO: 50 (Streptomyces coelicolor A3(2)) (protein)
chain: MQRQNWLITGVSTGLGRAFAQAALSAGHTVVGTVRSENDVRAFEELGPGHAHGRILDVTDGGAVNGVVAEVERSVGPLDVVVANAGYGLEGTFEETPLAEVRRQFDVNVFGAMATLQAALPHMRARRRGHLMAVTSMGGLMAVPGMSAYCGSKFALEGILEALGKEVAQFGIHVTAIEPGSFRTDWAGRSMTRAARTVADYDDLFAPIREARQKASGNQLGNPAKAGEAVVHITSVDQPPAHLVLGSDALRLVTAARTAVDEDIRAWEALSRTTDFPQGAQL
In the case of B6, in series [8] (cofactor NADH), the Km worked out at 6560 ± 2540 µM, the kcat was 0.90 ± 0.05 s⁻¹ and the kcat/Km entry is recorded as “(1.07 ± 0.18) × ×10^2 M^−1 · s^−1”. Further, in [8] (cofactor NADPH), the Km stood at 35700 ± 10500 µM, the kcat was 21.9 ± 4.69 s⁻¹ and the kcat/Km entry was “(6.15 ± 1.31) × ×10^2 M^−1 · s^−1”. In series [9], the Km came to 8480 ± 580 µM, the kcat was 3.79 ± 0.10 s⁻¹ and the kcat/Km result is reported as “(4.47 ± 0.12) × ×10^2 M^−1 · s^−1”.
